B1: Azoarcus group I ribozyme (parent)
chain: GUGCCUUGCGCCGGGAAACCACGCAAGGGAUGGUGUCAAAUUCGGCGAAACCUAAGCGCCCGCCCGGGCGUAUGGCAACGCCGAGCCAAGCUUCGGCGCCUGCGCCGAUGAAGGUGUAGAGACUAGACGGCACCCACCUAAGGCAAACGCUAUGGUGAAGGCAUAGUCCAGGGAGUGGCGAAAGUCACACAAACCGG

Variants of: B1
Test: reverse-splicing fitness (ratio to wild type); higher = more active; in vitro selection; Mg2+ level not given
Procedure, shortened: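 An in vitro group I ribozyme library with randomized positions was T7-transcribed and gel-purified. In triplicate, 10 pmol RNA in EPPS pH 7.5 was reacted with 50 pmoles of a 30-nt RNA substrate for 1 h at 37 °C across several added MgCl2 levels (1–48 mM), then stopped with EDTA. Products were reverse transcribed from a substrate-complementary primer, PCR-amplified and sequenced (HiSeq 4000). Fitness is a variant's read proportion after selection over that before, normalised to wild type.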

First: GUGCCUUGCGCCGGGAAACCACGCAAGGGAUGGUGUCAAAUUCGGCGAAACCUAAGCGCCCGCCCGGGCGUAUGGCAACGCUGAGCCAAGCUUCGGCGCCUGCGCCGAUGGAGGUGUAGGGACUAGACGGCACCCACCUAAGGCAAACGGUAUGGUGAAGGCAUAGUCCAGGGAGGGGCGAAAGUCACACAAACCGG [C82U A111G A120G C150G U176G]
Second: GUGCCUUGCGCCGGGAAACCACGCAAGGGAUGGUGUCAAAUUCGGCGAAACCUAAGCGCCCGCCCGGGCGUAUGGCAACGCUGAGCCAAGCUUCGGCGCCUGCGCCGAUGGAGGUGUAGGGACUAGACGGCACCCACCUAAGGCAAACGGUAUGGUGAAGGCAUAGUCCAGGGAGCGGCGAAAGUCACACAAACCGG [C82U A111G A120G C150G U176C]
The reverse-splicing fitness of the first is lower: 0.0029 for the first, 0.00816 for the second.

Compared with GUGCCUUGCGCCGGGAAACCACGCAAGGGAUGGUGUCAAAUUCGGCGAAACCUAAGCGCCCGCCCGGGCGUAUGGCAACGCUGAGCCAAGCUUCGGCGCCUGCGCCGAUGGAGGUGUAGGGACUAGACGGCACCCACCUAAGGCAAACGGUAUGGUGAAGGCAUAGUCCAGGGAGAGGCGAAAGUCACACAAACCGG [C82U A111G A120G C150G U176A], GUGCCUUGCGCCGGGAAACCACGCAAGGGAUGGUGUCAAAUUCGGCGAAACCUAAGCGCCCGCCCGGGCGUAUGGCAACGCUGAGCCAAGCUUCGGCGCCUGCGCCGAUGGAGGUGUAGGGACUAGACGGCACCCACCUAAGGCAAACGAUAUGGUGAAGGCAUAGUCUAGGGAGCGGCGAAAGUCACACAAACCGG [C82U A111G A120G C150A C169U U176C] is higher in reverse-splicing fitness: 0.00527 for the first, 0.0157 for the second.

Going from GUGCCUUGCGCCGGGAAACCACGCAAGGGAUGGUGUCAAAUUCGGCGAAACCUAAGCGCCCGCCCGGGCGUAUGGCAACGCUGAGCCAAGCUUCGGCGCCUGCGCCGAUGGAGGUGUAGGGACUAGACGGCACCCACCUAAGGCAAACGAUAUGGUGAAGGCAUAGUCUAGGGAGGGGCGAAAGUCACACAAACCGG [C82U A111G A120G C150A C169U U176G] to GUGCCUUGCGCCGGGAAACCACGCAAGGGAUGGUGUCAAAUUCGGCGAAACCUAAGCGCCCGCCCGGGCGUAUGGCAACGCUGAGCCAAGCUUCGGCGCCUGCGCCGAUGGAGGUGUAGGGACUAGACGGCACCCACCUAAGGCAAACGAUAUGGUGAAGGCAUAGUCUAGGGAGAGGCGAAAGUCACACAAACCGG [C82U A111G A120G C150A C169U U176A], the reverse-splicing fitness rises from 0.00765 to 0.0248.

Compared with GUGCCUUGCGCCGGGAAACCACGCAAGGGAUGGUGUCAAAUUCGGCGAAACCUAAGCGCCCGCCCGGGCGUAUGGCAACGCUGAGCCAAGCUUCGGCGCCUGCGCCGAUGGAGGUGUAGGGACUAGACGGCACCCACCUAAGGCAAACGUUAUGGUGAAGGCAUAGUCAAGGGAGCGGCGAAAGUCACACAAACCGG [C82U A111G A120G C150U C169A U176C], GUGCCUUGCGCCGGGAAACCACGCAAGGGAUGGUGUCAAAUUCGGCGAAACCUAAGCGCCCGCCCGGGCGUAUGGCAACGCUGAGCCAAGCUUCGGCGCCUGCGCCGAUGGAGGUGUAGGGACUAGACGGCACCCACCUAAGGCAAACGUUAUGGUGAAGGCAUAGUCAAGGGAGGGGCGAAAGUCACACAAACCGG [C82U A111G A120G C150U C169A U176G] is lower in reverse-splicing fitness: 0.0129 for the first, 0.00504 for the second.

Compared with GUGCCUUGCGCCGGGAAACCACGCAAGGGAUGGUGUCAAAUUCGGCGAAACCUAAGCGCCCGCCCGGGCGUAUGGCAACGCUGAGCCAAGCUUCGGCGCCUGCGCCGAUGGAGGUGUAGGGACUAGACGGCACCCACCUAAGGCAAACGUUAUGGUGAAGGCAUAGUCAAGGGAGAGGCGAAAGUCACACAAACCGG [C82U A111G A120G C150U C169A U176A], GUGCCUUGCGCCGGGAAACCACGCAAGGGAUGGUGUCAAAUUCGGCGAAACCUAAGCGCCCGCCCGGGCGUAUGGCAACGCUGAGCCAAGCUUCGGCGCCUGCGCCGAUGGAGGUGUAGGGACUAGACGGCACCCACCUAAGGCAAACGAUAUGGUGAAGGCAUAGUCUAGGGAGUGGCGAAAGUCACACAAACCGG [C82U A111G A120G C150A C169U] is lower in reverse-splicing fitness: 0.0143 for the first, 0.00735 for the second.

Going from GUGCCUUGCGCCGGGAAACCACGCAAGGGAUGGUGUCAAAUUCGGCGAAACCUAAGCGCCCGCCCGGGCGUAUGGCAACGCUGAGCCAAGCUUCGGCGCCUGCGCCGAUGGAGGUGUAGGGACUAGACGGCACCCACCUAAGGCAAACGGUAUGGUGAAGGCAUAGUCUAGGGAGGGGCGAAAGUCACACAAACCGG [C82U A111G A120G C150G C169U U176G] to GUGCCUUGCGCCGGGAAACCACGCAAGGGAUGGUGUCAAAUUCGGCGAAACCUAAGCGCCCGCCCGGGCGUAUGGCAACGCUGAGCCAAGCUUCGGCGCCUGCGCCGAUGGAGGUGUAGGGACUAGACGGCACCCACCUAAGGCAAACGGUAUGGUGAAGGCAUAGUCUAGGGAGCGGCGAAAGUCACACAAACCGG [C82U A111G A120G C150G C169U U176C], the reverse-splicing fitness rises from 0.00601 to 0.0124.

Compared with GUGCCUUGCGCCGGGAAACCACGCAAGGGAUGGUGUCAAAUUCGGCGAAACCUAAGCGCCCGCCCGGGCGUAUGGCAACGCUGAGCCAAGCUUCGGCGCCUGCGCCGAUGGAGGUGUAGGGACUAGACGGCACCCACCUAAGGCAAACGGUAUGGUGAAGGCAUAGUCUAGGGAGAGGCGAAAGUCACACAAACCGG [C82U A111G A120G C150G C169U U176A], GUGCCUUGCGCCGGGAAACCACGCAAGGGAUGGUGUCAAAUUCGGCGAAACCUAAGCGCCCGCCCGGGCGUAUGGCAACGCUGAGCCAAGCUUCGGCGCCUGCGCCGAUGGAGGUGUAGGGACUAGACGGCACCCACCUAAGGCAAACGUUAUGGUGAAGGCAUAGUCCAGGGAGUGGCGAAAGUCACACAAACCGG [C82U A111G A120G C150U] is higher in reverse-splicing fitness: 0.0121 for the first, 0.0125 for the second.

GUGCCUUGCGCCGGGAAACCACGCAAGGGAUGGUGUCAAAUUCGGCGAAACCUAAGCGCCCGCCCGGGCGUAUGGCAACGCUGAGCCAAGCUUCGGCGCCUGCGCCGAUGGAGGUGUAGGGACUAGACGGCACCCACCUAAGGCAAACGGUAUGGUGAAGGCAUAGUCCAGGGAGUGGCGAAAGUCACACAAACCGG [C82U A111G A120G C150G] showed a reverse-splicing fitness of 0.00676.

Reference: the RNAGym collection of RNA variant scans (doi:10.1093/molbev/msab373)
